Assay results from PMC2742306 (Molecular cell, 2009).

Experiments:
Experiment in all cases: cell-based or functional assay
[1] = target: T1, DegS K243D/D320A double mutant (residues 27–355, N-terminal His6 tag) (E. coli, UniProt P0AEE3 27-355, K243D | D320A)
T1 sequence (looked up): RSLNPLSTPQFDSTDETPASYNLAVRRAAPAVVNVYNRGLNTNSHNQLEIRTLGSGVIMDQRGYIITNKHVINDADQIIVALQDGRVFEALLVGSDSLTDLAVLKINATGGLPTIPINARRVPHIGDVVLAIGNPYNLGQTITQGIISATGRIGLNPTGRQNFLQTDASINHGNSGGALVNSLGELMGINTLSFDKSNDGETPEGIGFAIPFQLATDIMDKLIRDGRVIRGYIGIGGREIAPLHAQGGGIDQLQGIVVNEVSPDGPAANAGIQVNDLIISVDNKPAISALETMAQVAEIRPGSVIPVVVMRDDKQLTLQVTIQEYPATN

[2] = target: T2, DegS K243D/M319A double mutant (residues 27–355, N-terminal His6 tag) (E. coli, UniProt P0AEE3 27-355, K243D | M319A)
T2 sequence (looked up): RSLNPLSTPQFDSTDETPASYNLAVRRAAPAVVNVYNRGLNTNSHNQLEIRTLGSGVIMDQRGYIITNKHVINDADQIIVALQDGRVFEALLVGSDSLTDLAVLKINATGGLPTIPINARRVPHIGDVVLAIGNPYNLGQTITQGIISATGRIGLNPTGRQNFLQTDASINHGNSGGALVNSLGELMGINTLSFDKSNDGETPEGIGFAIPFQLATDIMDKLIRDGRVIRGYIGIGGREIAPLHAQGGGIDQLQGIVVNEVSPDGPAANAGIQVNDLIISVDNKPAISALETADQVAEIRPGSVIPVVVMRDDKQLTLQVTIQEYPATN

[3] = target: T3, DegS K243D (residues 27–355, N-terminal His6 tag) (E. coli, UniProt P0AEE3 27-355, K243D)
T3 sequence (looked up): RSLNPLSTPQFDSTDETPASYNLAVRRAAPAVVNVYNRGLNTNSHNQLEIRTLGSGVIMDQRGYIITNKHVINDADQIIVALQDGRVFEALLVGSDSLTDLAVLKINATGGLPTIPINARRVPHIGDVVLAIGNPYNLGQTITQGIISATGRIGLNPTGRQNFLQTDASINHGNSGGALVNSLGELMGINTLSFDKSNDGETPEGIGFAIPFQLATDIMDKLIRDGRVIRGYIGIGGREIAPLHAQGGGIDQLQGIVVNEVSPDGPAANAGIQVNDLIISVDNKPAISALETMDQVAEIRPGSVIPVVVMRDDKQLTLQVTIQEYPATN

[4] = target: T4, DegS D320A (residues 27–355, N-terminal His6 tag) (E. coli, UniProt P0AEE3 27-355, D320A)
T4 sequence (looked up): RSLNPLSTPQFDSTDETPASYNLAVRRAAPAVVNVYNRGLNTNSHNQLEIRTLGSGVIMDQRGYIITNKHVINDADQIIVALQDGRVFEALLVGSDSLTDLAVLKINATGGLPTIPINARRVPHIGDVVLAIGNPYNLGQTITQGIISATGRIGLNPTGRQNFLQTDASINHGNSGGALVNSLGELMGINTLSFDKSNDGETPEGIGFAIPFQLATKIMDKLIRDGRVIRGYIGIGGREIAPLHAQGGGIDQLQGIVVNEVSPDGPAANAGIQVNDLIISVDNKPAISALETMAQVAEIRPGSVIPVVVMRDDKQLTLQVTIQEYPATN

KM of RseA cleavage with saturating … peptide [1]: 630 µM | KM of RseA cleavage with saturating YYF peptide [2]: 490 µM | KM of RseA cleavage with saturating … peptide [2]: 840 µM | KM of RseA cleavage with saturating YYF peptide [3]: 440 µM | KM of RseA cleavage with saturating … peptide [3]: 580 µM | KM of RseA cleavage with saturating YYF peptide [4]: 430 µM | KM of RseA cleavage with saturating … peptide [4]: 520 µM
B1: 35S-labeled variant of the periplasmic domain of E. coli RseA (residues 121–216) with a C-terminal His6 tag (domain or fragment, UniProt P0AFX7 121-216, looked up)
chain: YNGQSETSQQPETPVFNTLPMMGKASPVSLGVPSEATANNGQQQQVQEQRRRINAMLQDYELQRRLHSEQLQFEQAQTQQAAVQVPGIQTLGTQSQ
modifications: 35S-labeled
